The series deals with T1, UHRF1 wild-type (human) (UniProt Q96T88).
T1 sequence: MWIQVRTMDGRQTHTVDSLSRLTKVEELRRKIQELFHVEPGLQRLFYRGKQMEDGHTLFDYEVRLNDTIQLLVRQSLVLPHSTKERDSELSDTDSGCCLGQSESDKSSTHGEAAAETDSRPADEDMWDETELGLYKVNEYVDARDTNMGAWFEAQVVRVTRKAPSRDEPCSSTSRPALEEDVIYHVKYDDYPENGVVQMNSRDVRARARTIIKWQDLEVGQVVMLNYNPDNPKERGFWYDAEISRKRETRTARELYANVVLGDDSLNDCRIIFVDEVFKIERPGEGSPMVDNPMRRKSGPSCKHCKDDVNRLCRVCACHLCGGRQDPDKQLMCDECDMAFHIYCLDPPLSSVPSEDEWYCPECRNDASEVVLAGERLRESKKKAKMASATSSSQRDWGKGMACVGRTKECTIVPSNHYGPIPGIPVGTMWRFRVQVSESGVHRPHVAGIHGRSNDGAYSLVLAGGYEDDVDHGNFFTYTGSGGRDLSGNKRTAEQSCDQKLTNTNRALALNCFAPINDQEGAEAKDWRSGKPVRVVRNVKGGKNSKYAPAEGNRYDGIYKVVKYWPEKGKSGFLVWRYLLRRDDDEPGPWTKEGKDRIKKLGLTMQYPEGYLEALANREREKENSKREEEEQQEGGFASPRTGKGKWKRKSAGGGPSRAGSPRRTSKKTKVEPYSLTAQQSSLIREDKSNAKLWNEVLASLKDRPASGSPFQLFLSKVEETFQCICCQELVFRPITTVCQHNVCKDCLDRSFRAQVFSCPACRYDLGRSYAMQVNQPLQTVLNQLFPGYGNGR
Briefly: fluorescence polarization. The settings on record: 50 mM vs 150 mM NaCl; 5mC at position 6 of strand 2 (GTCAG5mCGCATGG); 25 mM HEPES pH 7.5, 0.05% NP-40, 100 mM NaCl (unless indicated), 10 nM FAM-DNA, 10 min, 25 C; scale: fold affinity difference between 50 and 150 mM NaCl. (Polarisation of emitted light reports the rotation of a fluorescent probe.)

The sequence CCATGCGCTGAC (double strand) [HeDNA] showed a binding signal of 500.
